# Data: patent publication US20160146829A1 (University of California, published 2016)
# Ends that are not written are not given here. * marks the point of attachment. Biotin = O=C1N[C@H]2[C@H](CS[C@H]2CCCCC(=O)*)N1
# T1: pCp-1B, biotinylated alemtuzumab binding peptide (not fully specified (bridges); also: incubated with sodium tetrathionate (oxidizing) before binding)
# T1 construct: Synthetic peptide (Sigma-Genosys); For ELISA it was captured on NeutrAvidin plates; also called Cp-1 (biotinylated peptide)
# T1 peptide: ACGSLSPSSCGGK(Biotin)
# What was measured:
# [1] = biological target: T1, pCp-1B, biotinylated alemtuzumab …; assay: nano-pore optical interferometry (SkiPro); biotinylated peptide on streptavidin chip, whole mAb in solution
# [2] = biological target: T1, pCp-1B, biotinylated alemtuzumab …; assay: peptide ELISA, biotinylated peptide on NeutrAvidin plate, antibody diluted in TBST, anti-human IgG POD detection
binder,measurement,setting,value
"alemtuzumab (antibody, V domains shown) VH: QVQLQESGPGLVRPSQTLSLTCTVSGFTFTDFYMNWVRQPPGRGLEWIGFIRDKAKGYTTEYNPSVKGRVTMLVDTSKNQFSLRLSSVTAADTAVYYCAREGHTAAPFDYWGQGSLVTVSS VL: DIQMTQSPSSLSASVGDRVTITCKASQNIDKYLNWYQQKPGKAPKLLIYNTNNLQTGVPSRFSGSGSGTDFTFTISSLQPEDIATYYCLQHISRPRTFGQGTKVEIKR",Kd,[1],163 nM
same,koff,[1],0.00132 s⁻¹
same,kon,[1],8130 M⁻¹ s⁻¹
same,EC50 (read off the curve),[2],~0.3 µg/mL
